Patent US20250154283A1 (published 2025)

T1: biotinylated cynomolgus monkey VWF cysteine knot (CK) domain construct (cynomolgus monkey, biotinylated in vitro (BirA) on the biotinylation tag; one N-glycan)
T1 construct: Expressed in HEK293 EBNA cells; disulfide-linked homodimer; also called cyno VWF CK; cyno VWF CK domain; not shown: in vitro biotinylation tag, HRV-3C site and 3 VWF residues before the CK domain
T1 chain: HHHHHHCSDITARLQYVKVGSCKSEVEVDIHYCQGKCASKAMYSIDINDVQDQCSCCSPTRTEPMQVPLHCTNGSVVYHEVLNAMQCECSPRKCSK


Experiments:
[1] = target: T2, biotinylated human VWF cysteine knot (CK) domain construct (human, UniProt P04275 2724-2813, biotinylated in vitro (BirA) on the biotinylation tag; one N-glycan); assay: SPR, scFv captured via anti-SV5, CK domain injected, pH 5.5, apparent Kd;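 note: scFvs from crude yeast supernatants captured on chip-bound anti-SV5 antibody, Kd computed as koff divided by kon, dimeric CK construct likely makes affinity appear higher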
T2 construct: Expressed in HEK293 EBNA cells; disulfide-linked homodimer; also called human VWF CK; human VWF CK domain; not shown: in vitro biotinylation tag, HRV-3C site and 3 VWF residues before the CK domain

[2] = target: T1, biotinylated cynomolgus monkey VWF …; assay: SPR, scFv captured via anti-SV5, CK domain injected, pH 7.4, apparent Kd;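 note: scFvs from crude yeast supernatants printed on an amine-coupled anti-SV5 lawn, Kd computed as koff over kon, likely overestimating affinity because the CK construct is dimeric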
[3] = target: T2, biotinylated human VWF cysteine knot …; assay: as above

Kd [1] [nM]	Kd [2] [nM]	Kd [3] [nM]	Binder
0.225	0.096	1.07	Lib4_P2_B4_scFv (scFv, VH-linker-VL; not shown: C-terminal 3xFLAG and SV5 tags) scFv: QVQLQESGPGLVKPSQTLSLTCTVSGASLGDQYWSWIRQPPGKGLEWIGYIHPSGDFDYNPSLKSRVTMSVDTSKNQFSLKVNSVTAADTAVYYCARHYSSSWYGTWYFDLWGRGTLVTVSSSGGSTITSYNVYYTKLSSSGTEIVMTQSPATLSLSPGERATLSCRASQNIGTNLAWYQQKPGQAPRLLIYDASVRAAGIPARFSGSGSGTDFTLTISSLEPEDFAVYYCQQSLTTPLTFGGGTKVEIK
2.58	4.67	4.27	4029_Lib1_scFv (scFv, VH-linker-VL; not shown: C-terminal 3xFLAG and SV5 tags) scFv: QVQLVQSGAEVKKPGASVKVSCKVSGYPFTSSGIHWVRQAPGKGLEWMGGVIPLFGTANYAQKFQGRVTMTEDTSTDTAYMELSSLKSEDTAVYYCARIRVSSGWYRDYGMDVWGQGTTVTVSSSGGSTITSYNVYYTKLSSSGTDIQMTQSPSSVSASVGDRVTITCRASQSIGDFLAWYQQKPGKAPKLLIYDASHLQTGVPSRFSGSGSGTDFTLTISSLQPEDFANYYCQQTSTIPPTFGGGTKVEIK
0.639	0.536	0.915	Lib1_P1_E9_scFv (scFv, VH-linker-VL; not shown: C-terminal 3xFLAG and SV5 tags) scFv: QVQLVQSGAEVKKPGASVKVSCKVSGYTFTSHIIHWVRQAPGKGLEWMGGMNPYSNKAIYAQKFQGRVTMTEDTSTDTAYMELSSLKSEDTAVYYCARDASDYGDYGYYYYYMDVWGKGTTVTVSSSGGSTITSYNVYYTKLSSSGTDIQMTQSPSSVSASVGDRVTITCRASQYIGNDLAWYQQKPGKAPKLLIYEASQRPSGVPSRFSGSGSGTDFTLTISSLQPEDFANYYCQQQYNYPLTFGGGTKVEIK
0.235	0.031	1.2	Lib4_P2_A1_scFv (scFv, VH-linker-VL; not shown: C-terminal 3xFLAG and SV5 tags) scFv: QVQLQESGPGLVKPSQTLSLTCTVSGASFGDNYWSWIRQPPGKGLEWIGYIDTSGSSDYNPSLKSRVTMSVDTSKNQFSLKVNSVTAADTAVYYCARVSWGYYAMDVWGQGTTVTVSSSGGSTITSYNVYYTKLSSSGTEIVMTQSPATLSLSPGERATLSCRASQGISGRLAWYQQKPGQAPRLLIYDVSTRATGIPARFSGSGSGTDFTLTISSLEPEDFAVYYCQQYDTSAPLTFGGGTKVEIK
0.269	0.441	1.37	189_Lib4_scFv (scFv, VH-linker-VL; not shown: C-terminal 3xFLAG and SV5 tags) scFv: QVQLQESGPGLVKPSQTLSLTCTVSGVTFSSYGWSWIRQPPGKGLEWIGYVDTSGSTDYNPSLKSRVTMSVDTSKNQFSLKVNSVTAADTAVYYCARTTYYYDSSGFARGWFDPWGQGTLVTVSSSGGSTITSYNVYYTKLSSSGTEIVMTQSPATLSLSPGERATLSCRASQSVPSSHLAWYQQKPGQAPRLLIYDATNRAAGIPARFSGSGSGTDFTLTISSLEPEDFAVYYCQQYDNWPSPSFGGGTKVEIK
0.412	0.018	1.16	3552_Lib8_scFv (scFv, VH-linker-VL; not shown: C-terminal 3xFLAG and SV5 tags) scFv: EVQLVESGGGLVQPGRSLRLSCAASEFTFGDYDMHWVRQAPGKGLEWVSAISSSGSNRDYADSVEGRFTISRDNAKNSLYLQMNSLRAEDTAVYYCARDAWFGDAFDIWGQGTMVTVSSSGGSTITSYNVYYTKLSSSGTDIQMTQSPSSLSASVGDRVTITCRASESVSSWLAWYQQKPGKAPKLLIYGASTLEGGVPSRFSGSGSGTDFTLTISSLQPEDVATYYCQQSYSFPDFGGGTKVEIK
0.567	0.38	0.958	4166_Lib4_scFv (scFv, VH-linker-VL; not shown: C-terminal 3xFLAG and SV5 tags) scFv: QVQLQESGPGLVKPSQTLSLTCTVSGESFSGHFWSWIRQPPGKGLEWIGYISQSGRTDYNPSLKSRVTMSVDTSKNQFSLKVNSVTAADTAVYYCARTLPRIQLWSPRGAFDIWGQGTMVTVSSSGGSTITSYNVYYTKLSSSGTEIVMTQSPATLSLSPGERATLSCRASQSLGRSLAWYQQKPGQAPRLLIYDASHRATGIPARFSGSGSGTDFTLTISSLEPEDFAVYYCQQYVSYPLTFGGGTKVEIK
0.519	0.922	1.18	2738_Lib1_scFv (scFv, VH-linker-VL; not shown: C-terminal 3xFLAG and SV5 tags) scFv: QVQLVQSGAEVKKPGASVKVSCKVSGYTLTDLPIHWVRQAPGKGLEWMGGINPFLGTTIYAQKFQGRVTMTEDTSTDTAYMELSSLKSEDTAVYYCARGVDMLATARDYYYMAIWGKGTTVTVSSSGGSTITSYNVYYTKLSSSGTDIQMTQSPSSVSASVGDRVTITCRASQSIGNDLAWYQQKPGKAPKLLIYGASMRATGVPSRFSGSGSGTDFTLTISSLQPEDFANYYCQQYASDPLTFGGGTKVEIK
1.22	1.03	1.41	Lib6_P3_B9_scFv (scFv, VH-linker-VL; not shown: C-terminal 3xFLAG and SV5 tags) scFv: EVQLVQSGAEVKKPGASVKVSCKASGDTFSSHVISWVRQAPGQGLEWMGGINPRTGTTIYAQKLQGRGTMTTDPSTSTAYMELRSLRSDDTAVYYCARTRPWAGLDVWGQGTTVTVSSSGGSTITSYNVYYTKLSSSGTESALTQPASVSGSPGQSITISCTGTNIEYKGVSWYQQHPGKAPKLMIYGVDKRPSGVSNRFSGSKSGNTASLTISGLQAEDEADYYCQAWGTSTAIFGGGTKLTVL
0.737	0.689	1.13	3964_Lib4_scFv (scFv, VH-linker-VL; not shown: C-terminal 3xFLAG and SV5 tags) scFv: QVQLQESGPGLVKPSQTLSLTCTVSGASISTHSWSWIRQPPGKGLEWIGYINPSGDIDYNPSLKSRVTMSVDTSKNQFSLKVNSVTAADTAVYYCARGRTGFDSSGFVVGAFDIWGQGTMVTVSSSGGSTITSYNVYYTKLSSSGTEIVMTQSPATLSLSPGERATLSCRASQNVNDNLAWYQQKPGQAPRLLIYDASTRPTGIPARFSGSGSGTDFTLTISSLEPEDFAVYYCQQYLTIPRTFGGGTKVEIK
0.397	0.206	0.917	Lib8_P4_D4_scFv (scFv, VH-linker-VL; not shown: C-terminal 3xFLAG and SV5 tags) scFv: QVQLVQSGAEVKKPGASVKVSCKVSGDTLSNYAIHWVRQAPGKGLEWMGGINPNAGTTIYAQKFQGRVTMTEDTSTDTAYMELSSLKSEDTAVYYCARDSSSWCPVGYYYYYMDVWGKGTTVTVSSSGGSTITSYNVYYTKLSSSGTDIQMTQSPSSVSASVGDRVTITCRASQSIGDFLAWYQQKPGKAPKLLIYDASHLQTGVPSRFSGSGSGTDFTLTISSLQPEDFANYYCQQTSTIPPTFGGGTKVEIK
0.617	0.155	1.08	Lib8_P4_C11_scFv (scFv, VH-linker-VL; not shown: C-terminal 3xFLAG and SV5 tags) scFv: QVQLVQSGAEVKKPGASVKVSCKVSGDTLSNYAIHWVRQAPGKGLEWMGGINPNAGTTIYAQKFQGRVTMTEDTSTDTAYMELSSLKSEDTAVYYCARDSSSWCPVGYYYYYMDVWGKGTTVTVSSSGGSTITSYNVYYTKLSSSGTDIQMTQSPSSVSASVGDRVTITCRASQSIGDFLAWYQQKPGKAPKLLIYDASHLQTGVPSRFSGSGSGTDFTLTISSLQPEDFANYYCQQTSTIPPTFGGGTKVEIK
0.202	1.08	1.38	Lib1_P1_A1_scFv (scFv, VH-linker-VL; not shown: C-terminal 3xFLAG and SV5 tags) scFv: QVQLVQSGAEVKKPGASVKVSCKVSGDTLSNYAIHWVRQAPGKGLEWMGGINPNAGTTIYAQKFQGRVTMTEDTSTDTAYMELSSLKSEDTAVYYCARDSSSWSQFGYYYYYMDVWGKGTTVTVSSSGGSTITSYNVYYTKLSSSGTDIQMTQSPSSVSASVGDRVTITCRASQSIGDFLAWYQQKPGKAPKLLIYDASHLQTGVPSRFSGSGSGTDFTLTISSLQPEDFANYYCQQTSTIPPTFGGGTKVEIK
